Measured values taken from patent US20200087373A1 (UNIVERSITY OF COPENHAGEN, published 2020).
Ends that are not written are not given here. * marks the point of attachment. C16 diacid = O=C(O)CCCCCCCCCCCCCCC(=O)*; Palmitoyl = CCCCCCCCCCCCCCCC(=O)*

T1: human GIP receptor (human, UniProt P48546 22-466)
T1 sequence (looked up): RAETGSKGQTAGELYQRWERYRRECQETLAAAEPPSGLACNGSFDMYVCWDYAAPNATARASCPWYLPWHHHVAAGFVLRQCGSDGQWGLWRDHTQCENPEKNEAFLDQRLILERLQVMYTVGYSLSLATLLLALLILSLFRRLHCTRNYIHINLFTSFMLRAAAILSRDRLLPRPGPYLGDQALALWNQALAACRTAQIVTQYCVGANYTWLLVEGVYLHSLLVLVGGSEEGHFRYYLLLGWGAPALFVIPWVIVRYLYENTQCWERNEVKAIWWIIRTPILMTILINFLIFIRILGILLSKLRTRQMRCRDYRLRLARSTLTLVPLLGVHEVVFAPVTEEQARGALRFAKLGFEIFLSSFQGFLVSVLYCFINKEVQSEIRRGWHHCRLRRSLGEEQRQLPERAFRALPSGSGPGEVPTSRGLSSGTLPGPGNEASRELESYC

B1: AT316 [hGIP(3-30)NH2[L27K]-C16diacid/27] (peptide)
peptide: EGTFISDYSIAMDKIHQQDFVNWLK(C16 diacid)AQK-NH2
modifications: N-terminus assumed
SMILES: CC[C@H](C)[C@H](NC(=O)[C@H](CO)NC(=O)[C@H](Cc1ccc(O)cc1)NC(=O)[C@H](CC(=O)O)NC(=O)[C@H](CO)NC(=O)[C@@H](NC(=O)[C@H](Cc1ccccc1)NC(=O)[C@@H](NC(=O)CNC(=O)[C@@H](N)CCC(=O)O)[C@@H](C)O)[C@@H](C)CC)C(=O)N[C@@H](C)C(=O)N[C@@H](CCSC)C(=O)N[C@@H](CC(=O)O)C(=O)N[C@@H](CCCCN)C(=O)N[C@H](C(=O)N[C@@H](Cc1c[nH]cn1)C(=O)N[C@@H](CCC(N)=O)C(=O)N[C@@H](CCC(N)=O)C(=O)N[C@@H](CC(=O)O)C(=O)N[C@@H](Cc1ccccc1)C(=O)N[C@H](C(=O)N[C@@H](CC(N)=O)C(=O)N[C@@H](Cc1c[nH]c2ccccc12)C(=O)N[C@@H](CC(C)C)C(=O)N[C@@H](CCCCNC(=O)CCCCCCCCCCCCCCC(=O)O)C(=O)N[C@@H](C)C(=O)N[C@@H](CCC(N)=O)C(=O)N[C@@H](CCCCN)C(N)=O)C(C)C)[C@@H](C)CC
B2: AT315 [hGIP(3-30)NH2[L26K]-C16diacid/26] (peptide)
peptide: EGTFISDYSIAMDKIHQQDFVNWK(C16 diacid)LAQK-NH2
modifications: N-terminus assumed
SMILES: CC[C@H](C)[C@H](NC(=O)[C@H](CO)NC(=O)[C@H](Cc1ccc(O)cc1)NC(=O)[C@H](CC(=O)O)NC(=O)[C@H](CO)NC(=O)[C@@H](NC(=O)[C@H](Cc1ccccc1)NC(=O)[C@@H](NC(=O)CNC(=O)[C@@H](N)CCC(=O)O)[C@@H](C)O)[C@@H](C)CC)C(=O)N[C@@H](C)C(=O)N[C@@H](CCSC)C(=O)N[C@@H](CC(=O)O)C(=O)N[C@@H](CCCCN)C(=O)N[C@H](C(=O)N[C@@H](Cc1c[nH]cn1)C(=O)N[C@@H](CCC(N)=O)C(=O)N[C@@H](CCC(N)=O)C(=O)N[C@@H](CC(=O)O)C(=O)N[C@@H](Cc1ccccc1)C(=O)N[C@H](C(=O)N[C@@H](CC(N)=O)C(=O)N[C@@H](Cc1c[nH]c2ccccc12)C(=O)N[C@@H](CCCCNC(=O)CCCCCCCCCCCCCCC(=O)O)C(=O)N[C@@H](CC(C)C)C(=O)N[C@@H](C)C(=O)N[C@@H](CCC(N)=O)C(=O)N[C@@H](CCCCN)C(N)=O)C(C)C)[C@@H](C)CC
B3: AT317 [hGIP(3-30)NH2[A28K]-C16diacid/28] (peptide)
peptide: EGTFISDYSIAMDKIHQQDFVNWLLK(C16 diacid)QK-NH2
modifications: N-terminus assumed
SMILES: CC[C@H](C)[C@H](NC(=O)[C@H](CO)NC(=O)[C@H](Cc1ccc(O)cc1)NC(=O)[C@H](CC(=O)O)NC(=O)[C@H](CO)NC(=O)[C@@H](NC(=O)[C@H](Cc1ccccc1)NC(=O)[C@@H](NC(=O)CNC(=O)[C@@H](N)CCC(=O)O)[C@@H](C)O)[C@@H](C)CC)C(=O)N[C@@H](C)C(=O)N[C@@H](CCSC)C(=O)N[C@@H](CC(=O)O)C(=O)N[C@@H](CCCCN)C(=O)N[C@H](C(=O)N[C@@H](Cc1c[nH]cn1)C(=O)N[C@@H](CCC(N)=O)C(=O)N[C@@H](CCC(N)=O)C(=O)N[C@@H](CC(=O)O)C(=O)N[C@@H](Cc1ccccc1)C(=O)N[C@H](C(=O)N[C@@H](CC(N)=O)C(=O)N[C@@H](Cc1c[nH]c2ccccc12)C(=O)N[C@@H](CC(C)C)C(=O)N[C@@H](CC(C)C)C(=O)N[C@@H](CCCCNC(=O)CCCCCCCCCCCCCCC(=O)O)C(=O)N[C@@H](CCC(N)=O)C(=O)N[C@@H](CCCCN)C(N)=O)C(C)C)[C@@H](C)CC
B4: AT314 [hGIP(3-30)NH2[W25K]-C16diacid/25] (peptide)
peptide: EGTFISDYSIAMDKIHQQDFVNK(C16 diacid)LLAQK-NH2
modifications: N-terminus assumed
SMILES: CC[C@H](C)[C@H](NC(=O)[C@H](CO)NC(=O)[C@H](Cc1ccc(O)cc1)NC(=O)[C@H](CC(=O)O)NC(=O)[C@H](CO)NC(=O)[C@@H](NC(=O)[C@H](Cc1ccccc1)NC(=O)[C@@H](NC(=O)CNC(=O)[C@@H](N)CCC(=O)O)[C@@H](C)O)[C@@H](C)CC)C(=O)N[C@@H](C)C(=O)N[C@@H](CCSC)C(=O)N[C@@H](CC(=O)O)C(=O)N[C@@H](CCCCN)C(=O)N[C@H](C(=O)N[C@@H](Cc1c[nH]cn1)C(=O)N[C@@H](CCC(N)=O)C(=O)N[C@@H](CCC(N)=O)C(=O)N[C@@H](CC(=O)O)C(=O)N[C@@H](Cc1ccccc1)C(=O)N[C@H](C(=O)N[C@@H](CC(N)=O)C(=O)N[C@@H](CCCCNC(=O)CCCCCCCCCCCCCCC(=O)O)C(=O)N[C@@H](CC(C)C)C(=O)N[C@@H](CC(C)C)C(=O)N[C@@H](C)C(=O)N[C@@H](CCC(N)=O)C(=O)N[C@@H](CCCCN)C(N)=O)C(C)C)[C@@H](C)CC
B5: AT318 [hGIP(3-30)NH2[Q29K]-C16diacid/29] (peptide)
peptide: EGTFISDYSIAMDKIHQQDFVNWLLAK(C16 diacid)K-NH2
modifications: N-terminus assumed
SMILES: CC[C@H](C)[C@H](NC(=O)[C@H](CO)NC(=O)[C@H](Cc1ccc(O)cc1)NC(=O)[C@H](CC(=O)O)NC(=O)[C@H](CO)NC(=O)[C@@H](NC(=O)[C@H](Cc1ccccc1)NC(=O)[C@@H](NC(=O)CNC(=O)[C@@H](N)CCC(=O)O)[C@@H](C)O)[C@@H](C)CC)C(=O)N[C@@H](C)C(=O)N[C@@H](CCSC)C(=O)N[C@@H](CC(=O)O)C(=O)N[C@@H](CCCCN)C(=O)N[C@H](C(=O)N[C@@H](Cc1c[nH]cn1)C(=O)N[C@@H](CCC(N)=O)C(=O)N[C@@H](CCC(N)=O)C(=O)N[C@@H](CC(=O)O)C(=O)N[C@@H](Cc1ccccc1)C(=O)N[C@H](C(=O)N[C@@H](CC(N)=O)C(=O)N[C@@H](Cc1c[nH]c2ccccc12)C(=O)N[C@@H](CC(C)C)C(=O)N[C@@H](CC(C)C)C(=O)N[C@@H](C)C(=O)N[C@@H](CCCCNC(=O)CCCCCCCCCCCCCCC(=O)O)C(=O)N[C@@H](CCCCN)C(N)=O)C(C)C)[C@@H](C)CC
B6: AT133 [hGIP(5-30)NH2[K16R; H18K; K30R]-C16/5] (peptide)
peptide: Palmitoyl-TFISDYSIAMDRIKQQDFVNWLLAQR-NH2
SMILES: CCCCCCCCCCCCCCCC(=O)N[C@H](C(=O)N[C@@H](Cc1ccccc1)C(=O)N[C@H](C(=O)N[C@@H](CO)C(=O)N[C@@H](CC(=O)O)C(=O)N[C@@H](Cc1ccc(O)cc1)C(=O)N[C@@H](CO)C(=O)N[C@H](C(=O)N[C@@H](C)C(=O)N[C@@H](CCSC)C(=O)N[C@@H](CC(=O)O)C(=O)N[C@@H](CCCNC(=N)N)C(=O)N[C@H](C(=O)N[C@@H](CCCCN)C(=O)N[C@@H](CCC(N)=O)C(=O)N[C@@H](CCC(N)=O)C(=O)N[C@@H](CC(=O)O)C(=O)N[C@@H](Cc1ccccc1)C(=O)N[C@H](C(=O)N[C@@H](CC(N)=O)C(=O)N[C@@H](Cc1c[nH]c2ccccc12)C(=O)N[C@@H](CC(C)C)C(=O)N[C@@H](CC(C)C)C(=O)N[C@@H](C)C(=O)N[C@@H](CCC(N)=O)C(=O)N[C@@H](CCCNC(=N)N)C(N)=O)C(C)C)[C@@H](C)CC)[C@@H](C)CC)[C@@H](C)CC)[C@@H](C)O
B7: AT134 [hGIP(5-30)NH2[K16R; H18K; K30R]-16/18] (peptide)
peptide: TFISDYSIAMDRIK(Palmitoyl)QQDFVNWLLAQR-NH2
modifications: N-terminus assumed
SMILES: CCCCCCCCCCCCCCCC(=O)NCCCC[C@H](NC(=O)[C@@H](NC(=O)[C@H](CCCNC(=N)N)NC(=O)[C@H](CC(=O)O)NC(=O)[C@H](CCSC)NC(=O)[C@H](C)NC(=O)[C@@H](NC(=O)[C@H](CO)NC(=O)[C@H](Cc1ccc(O)cc1)NC(=O)[C@H](CC(=O)O)NC(=O)[C@H](CO)NC(=O)[C@@H](NC(=O)[C@H](Cc1ccccc1)NC(=O)[C@@H](N)[C@@H](C)O)[C@@H](C)CC)[C@@H](C)CC)[C@@H](C)CC)C(=O)N[C@@H](CCC(N)=O)C(=O)N[C@@H](CCC(N)=O)C(=O)N[C@@H](CC(=O)O)C(=O)N[C@@H](Cc1ccccc1)C(=O)N[C@H](C(=O)N[C@@H](CC(N)=O)C(=O)N[C@@H](Cc1c[nH]c2ccccc12)C(=O)N[C@@H](CC(C)C)C(=O)N[C@@H](CC(C)C)C(=O)N[C@@H](C)C(=O)N[C@@H](CCC(N)=O)C(=O)N[C@@H](CCCNC(=N)N)C(N)=O)C(C)C

Molecular target: T1, human GIP receptor
Assay: cell-based or functional assay

| Binder | cAMP agonism, EC50 (log) | cAMP agonism, Emax | cAMP agonism, nM (EC50) | cAMP antagonism, log (IC50) | cAMP antagonism, nM (IC50) |
| --- | --- | --- | --- | --- | --- |
| B1 | -6.5 log M | 6.2% | 294 nM | -6.2 log M | 649 nM |
| B2 | -6.7 log M | 5.9% | 183 nM | -6.3 log M | 556 nM |
| B3 | -7.2 log M | 21.8% | 62 nM | -6.6 log M | 228 nM |
| B4 | -7.2 log M | 28.4% | 62 nM | -7 log M | 101 nM |
| B5 | -6.9 log M | 10.8% | 131 nM | -6.6 log M | 224 nM |
| B6 | – | 0% | – | -5.4 log M | 3810 nM |
| B7 | -7 log M | 11% | 35 nM | -7 log M | 93 nM |
